From US6734169B2, “Apolipoprotein A-I agonists and their use to treat dyslipidemic disorders” (priority 1997, dated 2004)

Biological target: T1, LCAT (purified from human plasma) (Homo sapiens, UniProt P04180)
T1 construct: The reaction is initiated by addition of LCAT (purified from human plasma); from tissue
T1 sequence (P04180 25-440): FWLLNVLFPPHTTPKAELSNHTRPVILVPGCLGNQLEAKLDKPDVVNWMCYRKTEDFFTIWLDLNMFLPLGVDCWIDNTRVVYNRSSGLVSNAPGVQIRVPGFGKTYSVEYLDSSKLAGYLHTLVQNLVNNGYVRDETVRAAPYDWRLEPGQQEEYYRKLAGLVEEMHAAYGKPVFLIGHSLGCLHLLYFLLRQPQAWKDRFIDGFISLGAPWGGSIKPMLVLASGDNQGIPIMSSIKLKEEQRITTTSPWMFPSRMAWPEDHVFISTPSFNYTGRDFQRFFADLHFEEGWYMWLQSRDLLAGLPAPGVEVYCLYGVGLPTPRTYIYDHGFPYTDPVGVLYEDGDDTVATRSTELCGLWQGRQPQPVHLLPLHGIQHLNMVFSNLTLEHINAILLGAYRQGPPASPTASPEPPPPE
Assay: LCAT activation assay
Assay type: biochemical
Conditions: LCAT activation as compared with native human ApoA-I (=100%); equivalent masses of peptide or ApoA-I; SUVs of EPC or POPC and radiolabelled cholesterol; listed as peptide 18AM4
Method: The peptides synthesized as described in Section 6, supra, were analyzed in vitro for their ability to activate LCAT. In the LCAT assay, substrate vesicles (small unilamellar vesicles or “SUVs”) composed of egg phophatidylcholine (EPC) or 1-Palmitoyl-2-oleyl-phosphatidylcholine (POPC) and radiolabelled cholesterol are preincubated with equivalent masses either of peptide or ApoA-I (isolated from human plasma). The reaction is initiated by addition of LCAT (purified from human plasma). Native ApoA-I, which was used as positive control, represents 100% activation activity. “Specific activity” (i.e., units of activity (LCAT activation)/unit of mass) of the peptides can be calculated as the concentration of peptide that achieves maximum LCAT activation. For example, a series of concentrations of the peptide (e.g., a limiting dilution) can be assayed to determine the “specific activity” for the peptide—the concentration which achieves maximal LCAT activation (i.e., percentage conversion of cholesterol to cholesterol ester) at a specific timepoint in the assay (e.g., 1 hr.). When plotting percentage conversion of cholesterol at, e.c., 1 hr., against the concentration of peptide used, the “specific activity” can be identified as the concentration of peptide that achieves a plateau on the plotted curve. […]

## EWLEAFYKKVLEKLKELF [peptide 246]
  ACTIVITY (%) LCAT: less than 4%
